Data reported in IntAct's records for PubMed 22000520.

B1: FHA domain-containing protein FhaA (Mycobacterium tuberculosis (strain ATCC 25618 / P71590 (parent)
chain: MGSQKRLVQRVERKLEQTVGDAFARIFGGSIVPQEVEALLRREAADGIQSLQGNRLLAPNEYIITLGVHDFEKLGADPELKSTGFARDLADYIQEQGWQTYGDVVVRFEQSSNLHTGQFRARGTVNPDVETHPPVIDCARPQSNHAFGAEPGVAPMSDNSSYRGGQGQGRPDEYYDDRYARPQEDPRGGPDPQGGSDPRGGYPPETGGYPPQPGYPRPRHPDQGDYPEQIGYPDQGGYPEQRGYPEQRGYPDQRGYQDQGRGYPDQGQGGYPPPYEQRPPVSPGPAAGYGAPGYDQGYRQSGGYGPSPGGGQPGYGGYGEYGRGPARHEEGSYVPSGPPGPPEQRPAYPDQGGYDQGYQQGATTYGRQDYGGGADYTRYTESPRVPGYAPQGGGYAEPAGRDYDYGQSGAPDYGQPAPGGYSGYGQGGYGSAGTSVTLQLDDGSGRTYQLREGSNIIGRGQDAQFRLPDTGVSRRHLEIRWDGQVALLADLNSTNGTTVNNAPVQEWQLADGDVIRLGHSEIIVRMH
partner: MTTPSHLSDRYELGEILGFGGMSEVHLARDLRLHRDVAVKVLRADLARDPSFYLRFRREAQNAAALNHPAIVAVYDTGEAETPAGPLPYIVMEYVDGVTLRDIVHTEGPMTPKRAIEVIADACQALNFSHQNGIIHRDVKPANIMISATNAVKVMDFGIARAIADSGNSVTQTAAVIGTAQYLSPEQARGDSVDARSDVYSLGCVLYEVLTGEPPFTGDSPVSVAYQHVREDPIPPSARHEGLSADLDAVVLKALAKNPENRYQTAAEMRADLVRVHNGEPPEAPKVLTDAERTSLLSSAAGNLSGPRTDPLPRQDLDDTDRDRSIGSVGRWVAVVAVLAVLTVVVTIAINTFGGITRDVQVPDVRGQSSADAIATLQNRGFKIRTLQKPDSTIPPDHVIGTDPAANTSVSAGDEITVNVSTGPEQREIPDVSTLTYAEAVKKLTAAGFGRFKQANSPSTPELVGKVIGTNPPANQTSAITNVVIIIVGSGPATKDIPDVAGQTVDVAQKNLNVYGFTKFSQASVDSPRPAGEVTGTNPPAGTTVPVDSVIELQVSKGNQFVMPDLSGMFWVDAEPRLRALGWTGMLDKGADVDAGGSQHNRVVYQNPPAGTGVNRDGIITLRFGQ
B2: Serine/threonine-protein kinase PknB (Mycobacterium tuberculosis (strain ATCC 25618 / P9WI81 (parent)
chain: B1 partner
partner: B1 chain

Variants of: B1
Conditions: with pknb_myctu pknB

| Variant | effect of a mutation on the interaction |
| --- | --- |
| T116A | disrupting interaction |

Variants of: B2
Conditions: with fhaa_myctu fhaA

| Variant | effect of a mutation on the interaction |
| --- | --- |
| T294A | increasing interaction |
| T309A | increasing interaction |
